Biological target: T1, LONM (human mitochondrial matrix AAA+ protease) (human (endogenous in HeLa)) (UniProt P36776)
T1 sequence: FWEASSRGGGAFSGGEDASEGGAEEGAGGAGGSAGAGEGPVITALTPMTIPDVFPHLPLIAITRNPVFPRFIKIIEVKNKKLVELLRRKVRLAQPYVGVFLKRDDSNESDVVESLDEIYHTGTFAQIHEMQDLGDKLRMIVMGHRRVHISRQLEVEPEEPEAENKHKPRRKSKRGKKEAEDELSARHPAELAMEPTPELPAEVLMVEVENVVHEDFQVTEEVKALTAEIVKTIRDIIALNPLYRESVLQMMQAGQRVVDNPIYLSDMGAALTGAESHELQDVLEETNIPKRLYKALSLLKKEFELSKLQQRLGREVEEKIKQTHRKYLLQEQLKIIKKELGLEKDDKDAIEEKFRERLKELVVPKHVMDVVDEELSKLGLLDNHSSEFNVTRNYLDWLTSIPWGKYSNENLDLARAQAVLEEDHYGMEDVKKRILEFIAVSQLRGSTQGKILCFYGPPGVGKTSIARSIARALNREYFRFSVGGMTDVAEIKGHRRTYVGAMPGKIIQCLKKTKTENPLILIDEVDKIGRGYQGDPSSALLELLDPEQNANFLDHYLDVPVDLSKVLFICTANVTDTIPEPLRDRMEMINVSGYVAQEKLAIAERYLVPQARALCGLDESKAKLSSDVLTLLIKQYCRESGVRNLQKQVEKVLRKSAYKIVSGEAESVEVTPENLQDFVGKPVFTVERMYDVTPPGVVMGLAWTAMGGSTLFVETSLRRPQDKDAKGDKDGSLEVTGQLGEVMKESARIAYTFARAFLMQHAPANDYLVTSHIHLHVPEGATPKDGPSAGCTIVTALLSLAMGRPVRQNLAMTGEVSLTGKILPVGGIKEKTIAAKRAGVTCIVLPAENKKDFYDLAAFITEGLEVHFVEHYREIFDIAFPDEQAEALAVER

B1: Pig heart mitochondrial malate dehydrogenase (MDH) (natural protein)
chain: AKVAVLGASGGIGQPLSLLLKNSPLVSRLTLYDIAHTPGVAADLSHIETRATVKGYLGPEQLPDCLKGCDVVVIPAGVPRKPGMTRDDLFNTNATIVATLTAACAQHCPDAMICIISNPVNSTIPITAEVFKKHGVYNPNKIFGVTTLDIVRANAFVAELKGLDPARVSVPVIGGHAGKTIIPLISQCTPKVDFPQDQLSTLTGRIQEAGTEVVKAKAGAGSATLSMAYAGARFVFSLVDAMNGKEGVVECSFVKSQETDCPYFSTPLLLGKKGIEKNLGIGKISPFEEKMIAEAIPELKASIKKGEEFVKNMK
- half-life of guanidine-unfolded MDH (MDHU) in in vitro degradation by purified recombinant LONM with ATP: 4 min

B2: mature recombinant OTC (rat ornithine transcarbamylase) (natural protein)
chain: SQVQLKGRDLLTLKNFTGEEIQYMLWLSADLKFRIKQKGEYLPLLQGKSLGMIFEKRSTRTRLSTETGFALLGGHPSFLTTQDIHLGVNESLTDTARVLSSMTDAVLARVYKQSDLDILAKEATIPIVNGLSDLYHPIQILADYLTLQEHYGSLKGLTLSWIGDGNNILHSIMMSAAKFGMHLQAATPKGYEPDPNIVKLAEQYAKENGTRLSMTNDPLEAARGGNVLITDTWISMGQEDEKKKRLQAFQGYQVTMKTAKVAASDWTFLHCLPRKPEEVDDEVFYSPRSLVFPEAENRKWTIMAVMVSLLTDYSPVLQKPKF
- half-life of guanidine-unfolded OTC (OTCU) in in vitro degradation by purified recombinant LONM with ATP: 15 min
